Consider one substance from paper PMC2191102.

The target in the test is moth cytochrome c, MCC(99K), wild-type peptide peptide on I-Ek (mouse). As to the kind of experiment: C1/2wt: antigen concentration for half-maximal IL-2 with wild-type I-Ek CHO APC.

As for 2B4, the EC50 of peptide was 25 nM.
